Results reported in PMC10786891, “Massively parallel profiling of RNA-targeting CRISPR-Cas13d”.
Residue numbers refer to the chain shown, from its start. Names may count otherwise.

T1: EsCas13d, nuclease-dead (Eubacterium siraeum, UniProt B0MS50, R295A;H300A;R849A;H854A)
T1 sequence: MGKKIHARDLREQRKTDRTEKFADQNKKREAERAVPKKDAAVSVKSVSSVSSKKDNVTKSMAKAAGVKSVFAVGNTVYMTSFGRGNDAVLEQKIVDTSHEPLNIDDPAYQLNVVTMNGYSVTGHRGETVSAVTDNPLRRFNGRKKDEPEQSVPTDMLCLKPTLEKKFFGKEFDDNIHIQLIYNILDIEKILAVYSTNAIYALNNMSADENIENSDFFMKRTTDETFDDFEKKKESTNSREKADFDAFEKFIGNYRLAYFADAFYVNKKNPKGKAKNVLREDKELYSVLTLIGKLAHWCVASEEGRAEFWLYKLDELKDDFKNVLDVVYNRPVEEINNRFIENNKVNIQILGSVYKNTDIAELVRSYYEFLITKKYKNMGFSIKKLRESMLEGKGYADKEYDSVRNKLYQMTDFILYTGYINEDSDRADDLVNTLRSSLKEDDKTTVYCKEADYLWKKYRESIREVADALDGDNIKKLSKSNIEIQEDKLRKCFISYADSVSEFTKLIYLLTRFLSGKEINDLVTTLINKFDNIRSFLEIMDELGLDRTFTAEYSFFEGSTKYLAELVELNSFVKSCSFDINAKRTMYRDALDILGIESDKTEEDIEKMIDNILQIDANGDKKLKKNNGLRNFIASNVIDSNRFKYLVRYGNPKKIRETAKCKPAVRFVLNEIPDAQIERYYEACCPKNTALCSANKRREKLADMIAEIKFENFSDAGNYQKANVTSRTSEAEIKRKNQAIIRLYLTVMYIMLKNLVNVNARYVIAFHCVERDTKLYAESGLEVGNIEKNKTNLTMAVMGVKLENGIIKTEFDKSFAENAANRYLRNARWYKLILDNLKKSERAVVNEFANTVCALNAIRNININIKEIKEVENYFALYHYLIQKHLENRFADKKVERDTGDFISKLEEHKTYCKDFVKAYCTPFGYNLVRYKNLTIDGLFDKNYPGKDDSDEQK

B1: target 1 insU 3' of 21,insU 3' of 9 (mixed)
RNA 1: CACCCGUGCAAAAAUGCAGGGGUCUAAAACUGAGCGGAUAACCUCUCUAUGG
RNA 2: GGGAAUGGAUCCACAUCUACGAAUUCGUACCUAUAGAGAGGUUAUUCCGCUCACCGAGAUCGGAAGAGCACACGU
B2: target 1 U11G,U19C (mixed)
RNA 1: B1 RNA 1
RNA 2: GGGAAUGGAUCCACAUCUACGAAUUCGUACCACAGAGAGGGUAUCCGCUCACCGAGAUCGGAAGAGCACACGU
B3: target 1 insC 3' of 20,insA 3' of 11 (mixed)
RNA 1: B1 RNA 1
RNA 2: B1 RNA 2 with U32A, A33C, U43A, A44U, U45A
B4: target 1 insA 3' of 6,insA 3' of 4 (mixed)
RNA 1: B1 RNA 1
RNA 2: GGGAAUGGAUCCACAUCUACGAAUUCGUACCAUAGAGAGGUUAUCCAGCAUCACCGAGAUCGGAAGAGCACACGU
B5: target 1 insC 3' of 13,insA 3' of 7 (mixed)
RNA 1: B1 RNA 1
RNA 2: B4 RNA 2 with G40C, U41G, A43U, U44A, C45U, G48C, C49G, A50C
B6: target 1 C6G,A16C (mixed)
RNA 1: B1 RNA 1
RNA 2: B2 RNA 2 with C33U, A36C, G41U, C46G
B7: target 1 insC 3' of 18,insG 3' of 2 (mixed)
RNA 1: B1 RNA 1
RNA 2: GGGAAUGGAUCCACAUCUACGAAUUCGUACCAUACGAGAGGUUAUCCGCUCGACCGAGAUCGGAAGAGCACACGU
B8: target 1 insU 3' of 21,insU 3' of 20 (mixed)
RNA 1: B1 RNA 1
RNA 2: B1 RNA 2 with A35U, G36A, A37G, G38A, A39G, G40A, U42G, A44U, U45A
B9: target 1 C6G,A9C (mixed)
RNA 1: B1 RNA 1
RNA 2: B2 RNA 2 with C33U, G41U, A43C, C46G
B10: target 1 insC 3' of 22,insG 3' of 6 (mixed)
RNA 1: B1 RNA 1
RNA 2: B1 RNA 2 with U32C, U46C, C48G
B11: target 1 insC 3' of 15,insC 3' of 15 (mixed)
RNA 1: B1 RNA 1
RNA 2: GGGAAUGGAUCCACAUCUACGAAUUCGUACCAUAGAGCCAGGUUAUCCGCUCACCGAGAUCGGAAGAGCACACGU
B12: target 1 insA 3' of 22,insC 3' of 19 (mixed)
RNA 1: B1 RNA 1
RNA 2: B11 RNA 2 with C31A, A32C, U33A, A34U, G35C, C38A, C39G
B13: target 1 U8A,U10C (mixed)
RNA 1: B1 RNA 1
RNA 2: B2 RNA 2 with C33U, G41U, U42C, U44A
B14: target 1 insA 3' of 11,insG 3' of 6 (mixed)
RNA 1: B1 RNA 1
RNA 2: B4 RNA 2 with U42A, A43U, U44A, C45U, A47C, C49G, A50C
B15: target 1 G5A,C7G (mixed)
RNA 1: B1 RNA 1
RNA 2: B2 RNA 2 with C33U, G41U, C45G, G47A
B16: target 1 insU 3' of 7 (mixed)
RNA 1: B1 RNA 1
RNA 2: GGGAAUGGAUCCACAUCUACGAAUUCGUACCAUAGAGAGGUUAUCUCGCUCACCGAGAUCGGAAGAGCACACGU
B17: target 1 insC 3' of 11,insC 3' of 5 (mixed)
RNA 1: B1 RNA 1
RNA 2: B4 RNA 2 with U42C, A43U, U44A, C45U, A47C, A50C
B18: target 1 insU 3' of 22,insA 3' of 13 (mixed)
RNA 1: B1 RNA 1
RNA 2: B1 RNA 2 with C31U, U32C, G41A, U42G, A44U, U45A
B19: target 1 insC 3' of 13,insA 3' of 12 (mixed)
RNA 1: B1 RNA 1
RNA 2: B11 RNA 2 with C38A, C39G, A40C, G42A
B20: target 1 insG 3' of 4,insU 3' of 2 (mixed)
RNA 1: B1 RNA 1
RNA 2: B4 RNA 2 with A47G, G48C, C49G, A50U, U51C, C52U
B21: target 1 insA 3' of 6,insC 3' of 3 (mixed)
RNA 1: B1 RNA 1
RNA 2: B4 RNA 2 with A50U, U51C
B22: target 1 A1G,G5A (mixed)
RNA 1: B1 RNA 1
RNA 2: B2 RNA 2 with C33U, G41U, G47A, A51G
B23: target 1 insC 3' of 15,insG 3' of 1 (mixed)
RNA 1: B1 RNA 1
RNA 2: B7 RNA 2 with C35G, G36A, A37G, G38C, G52A, A53G
B24: target 1 insG 3' of 18,insU 3' of 15 (mixed)
RNA 1: B1 RNA 1
RNA 2: B11 RNA 2 with A36G, G37A, C38G, C39U
B25: target 1 C2U,C4G (mixed)
RNA 1: B1 RNA 1
RNA 2: B2 RNA 2 with C33U, G41U, C48G, C50U
B26: target 1 U10C,G17C (mixed)
RNA 1: B1 RNA 1
RNA 2: B2 RNA 2 with C33U, G35C, G41U, U42C
B27: target 1 U11G,A18U (mixed)
RNA 1: B1 RNA 1
RNA 2: B2 RNA 2 with C33U, A34U
B28: target 1 G13A,A16C (mixed)
RNA 1: B1 RNA 1
RNA 2: B2 RNA 2 with C33U, A36C, G39A, G41U
B29: target 1 insU 3' of 15,insA 3' of 15 (mixed)
RNA 1: B1 RNA 1
RNA 2: B11 RNA 2 with C38U, C39A

Target: T1, EsCas13d, nuclease-dead
Assay: crRNA (strand 1, pre-loaded); Mg2+; 40 mM Tris-HCl pH 7.5, 150 mM NaCl, 6 mM MgCl2, 1 mM DTT, 0.1% Tween-20, 0.2 mg/ml BSA; 25 C; 10 min per concentration, then washed
Conditions: tags: His6-TwinStrep-SUMO cleaved; N-terminal SNAP kept (SNAP-Surface 488); label: 3' end held by stalled T7 RNA polymerase

Binder | Kd
B1 | 37 ± 4 nM
B2 | 86 ± 18 nM
B3 | 11.9 ± 0.7 nM
B4 | 28.5 ± 2.8 nM
B5 | 14.2 ± 0.9 nM
B6 | 42.2 ± 1.8 nM
B7 | 38.9 ± 2.9 nM
B8 | 27.8 ± 3.3 nM
B9 | 11.7 ± 0.6 nM
B10 | 25.2 ± 3.3 nM
B11 | 26.6 ± 1.5 nM
B12 | 51 ± 7 nM
B13 | 19.2 ± 1.2 nM
B14 | 15.7 ± 1.1 nM
B15 | 11.8 ± 0.8 nM
B16 | 14.8 ± 1.2 nM
B17 | 18.2 ± 1.4 nM
B18 | 17.1 ± 1.9 nM
B19 | 15.7 ± 1 nM
B20 | 8.5 ± 0.4 nM
B21 | 20 ± 1.3 nM
B22 | 35 ± 4 nM
B23 | 16.7 ± 1.3 nM
B24 | 70 ± 17 nM
B25 | 5.1 ± 0.5 nM
B26 | 63 ± 19 nM
B27 | 100 ± 25 nM
B28 | 28.8 ± 1.6 nM
B29 | 19 ± 1.7 nM
